Experimental data taken from patent publication US20250353906A1.

Target: human TNFα (human) (UniProt P01375)
Assay: cell-based or functional assay

Chain of human TNFα (human) (P01375 77-233 limits assumed): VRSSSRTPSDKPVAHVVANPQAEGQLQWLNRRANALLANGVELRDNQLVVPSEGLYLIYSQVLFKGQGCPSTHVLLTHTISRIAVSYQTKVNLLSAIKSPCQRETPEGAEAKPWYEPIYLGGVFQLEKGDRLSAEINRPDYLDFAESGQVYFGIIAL

- IC50 (nM, replicate 2), inhibition of TNFα signaling in HEK-BLUE TNFα cells: 0.07 nM
Substance: Etanercept (PRO078) (Fc fusion)
